Reference: patent publication US20090226960A1

Assays:
CD28 on Jurkat T cells = CD28 on Jurkat T cells (UniProt P10747); experiment: cell-based or functional assay
LFA-1 on Jurkat T cells = LFA-1 on Jurkat T cells (UniProt P20701); experiment: cell-based or functional assay
Chain of LFA-1 on Jurkat T cells (P20701 26-1170 limits assumed, chain 1 of 2): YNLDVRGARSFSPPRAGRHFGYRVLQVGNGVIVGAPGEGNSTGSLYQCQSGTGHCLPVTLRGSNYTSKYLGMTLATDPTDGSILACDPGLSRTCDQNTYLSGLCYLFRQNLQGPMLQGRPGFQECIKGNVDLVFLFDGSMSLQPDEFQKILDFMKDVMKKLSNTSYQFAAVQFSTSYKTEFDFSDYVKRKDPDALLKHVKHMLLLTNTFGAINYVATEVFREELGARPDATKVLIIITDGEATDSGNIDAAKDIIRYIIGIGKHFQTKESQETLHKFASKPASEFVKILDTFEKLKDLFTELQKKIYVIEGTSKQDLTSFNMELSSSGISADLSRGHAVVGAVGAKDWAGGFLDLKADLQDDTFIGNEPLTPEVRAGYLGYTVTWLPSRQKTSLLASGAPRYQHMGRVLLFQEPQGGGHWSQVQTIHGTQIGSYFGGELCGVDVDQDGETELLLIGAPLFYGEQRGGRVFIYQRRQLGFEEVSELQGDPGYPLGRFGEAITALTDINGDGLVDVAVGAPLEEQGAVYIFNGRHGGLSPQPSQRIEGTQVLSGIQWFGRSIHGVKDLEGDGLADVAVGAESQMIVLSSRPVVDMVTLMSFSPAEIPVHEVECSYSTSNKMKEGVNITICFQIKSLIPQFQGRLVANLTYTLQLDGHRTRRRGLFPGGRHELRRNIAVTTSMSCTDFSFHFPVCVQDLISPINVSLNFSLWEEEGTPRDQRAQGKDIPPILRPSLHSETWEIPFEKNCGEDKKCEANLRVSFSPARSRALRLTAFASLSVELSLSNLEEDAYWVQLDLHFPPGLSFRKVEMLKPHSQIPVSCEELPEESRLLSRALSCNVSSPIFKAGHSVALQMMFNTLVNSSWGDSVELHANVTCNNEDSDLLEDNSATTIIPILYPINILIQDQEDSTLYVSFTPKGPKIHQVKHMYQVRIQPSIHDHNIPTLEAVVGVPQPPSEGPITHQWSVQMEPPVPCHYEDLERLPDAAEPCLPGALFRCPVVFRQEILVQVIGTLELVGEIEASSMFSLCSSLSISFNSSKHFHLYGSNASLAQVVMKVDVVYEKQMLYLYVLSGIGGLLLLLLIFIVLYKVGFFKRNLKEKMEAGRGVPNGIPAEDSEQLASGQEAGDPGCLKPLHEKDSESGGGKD
Chain of LFA-1 on Jurkat T cells (P05107 23-769 limits assumed, chain 2 of 2, further chain): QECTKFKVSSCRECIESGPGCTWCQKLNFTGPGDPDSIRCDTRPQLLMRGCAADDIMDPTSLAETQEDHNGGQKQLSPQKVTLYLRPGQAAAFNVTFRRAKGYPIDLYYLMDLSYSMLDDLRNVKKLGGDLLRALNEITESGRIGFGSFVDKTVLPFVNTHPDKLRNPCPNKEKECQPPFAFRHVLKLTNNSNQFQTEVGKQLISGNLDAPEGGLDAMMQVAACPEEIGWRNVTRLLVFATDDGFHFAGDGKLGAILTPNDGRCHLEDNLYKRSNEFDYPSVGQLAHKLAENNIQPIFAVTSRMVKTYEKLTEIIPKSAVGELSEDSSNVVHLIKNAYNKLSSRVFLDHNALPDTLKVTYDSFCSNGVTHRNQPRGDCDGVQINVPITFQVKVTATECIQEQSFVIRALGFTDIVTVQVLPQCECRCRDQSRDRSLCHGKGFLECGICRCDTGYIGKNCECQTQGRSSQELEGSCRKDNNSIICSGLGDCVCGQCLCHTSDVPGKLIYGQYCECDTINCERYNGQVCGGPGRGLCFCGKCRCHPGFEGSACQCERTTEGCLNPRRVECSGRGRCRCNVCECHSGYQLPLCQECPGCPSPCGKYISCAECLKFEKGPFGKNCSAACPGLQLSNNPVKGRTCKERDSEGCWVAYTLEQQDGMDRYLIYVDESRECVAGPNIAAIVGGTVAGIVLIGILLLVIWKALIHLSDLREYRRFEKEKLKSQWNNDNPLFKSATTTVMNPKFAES

Row | Jurkat T cell adhesion to MembraneChip (fold against the control) (CD28 on Jurkat T cells) | Jurkat T cell adhesion to MembraneChip (fold against the control) (LFA-1 on Jurkat T cells) | Substance
1 | 4 |  | GPI-tethered extracellular domain of human B7-1 expressed from pYBS101 (from UniProt P33681 35-242) (ligand)
2 |  | 3 | GPI-tethered extracellular domain of human ICAM-1 expressed from pYBS101 (from UniProt P05362 28-480) (ligand)
